System: Escherichia coli TOP10
Experiment: shrunken log2 fold change of peptide-encoding DNA abundance (4.5 h post-induction vs induction); higher = less antimicrobial activity (less host growth inhibition)
Conditions: time post-induction: 4.5 h; library: site-saturation at positions 5, 18, 19, 20
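Further: peptides expressed intracellularly from a pBAD plasmid library in pooled LB shake-flask culture, induced with 0.3% L-arabinose, DNA abundance read by NGS, three biological replicates, DESeq2 with apeglm shrinkage.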

Row | Sequence | shrunken log2 fold change
1 | RRIRERPPRLPRPRPRPRYPPRP | 0.00273
2 | RRIRDRPPRLPRPRPRPVQFPRP | -0.0196
3 | RRIRHRPPRLPRPRPRPSQFPRP | -0.247
4 | RRIRCRPPRLPRPRPRPTVWPRP | 0.553
5 | RRIRWRPPRLPRPRPRPFIWPRP | 0.205
6 | RRIRRRPPRLPRPRPRPADIPRP | -0.0589
7 | RRIRHRPPRLPRPRPRPRCRPRP | 0.615
8 | RRIRARPPRLPRPRPRPSSEPRP | 0.271
9 | RRIRIRPPRLPRPRPRPKNYPRP | -0.417
10 | RRIRLRPPRLPRPRPRPQSKPRP | -0.224
11 | RRIRCRPPRLPRPRPRPKANPRP | 1.15
12 | RRIRHRPPRLPRPRPRPRMKPRP | -0.223
13 | RRIRERPPRLPRPRPRPARHPRP | -0.00285
14 | RRIRKRPPRLPRPRPRPIWKPRP | -0.00277
15 | RRIRKRPPRLPRPRPRPQDQPRP | 0.325
16 | RRIRNRPPRLPRPRPRPCHRPRP | -0.139
17 | RRIRYRPPRLPRPRPRPINLPRP | -0.145
18 | RRIRIRPPRLPRPRPRPPVVPRP | 0.0726
19 | RRIRKRPPRLPRPRPRPMCVPRP | 0.208
20 | RRIRVRPPRLPRPRPRPWFPPRP | -0.641
21 | RRIRERPPRLPRPRPRPIHVPRP | -0.274
22 | RRIRERPPRLPRPRPRPELQPRP | -0.0137
23 | RRIRCRPPRLPRPRPRPSTNPRP | -0.911
24 | RRIRYRPPRLPRPRPRPWMFPRP | -0.273
25 | RRIRMRPPRLPRPRPRPHPMPRP | 2.74

Row | Sequence | shrunken log2 fold change
26 | RRIRHRPPRLPRPRPRPTTQPRP | -0.0335
27 | RRIRDRPPRLPRPRPRPLTGPRP | 0.266
28 | RRIRSRPPRLPRPRPRPQHFPRP | -0.00646
29 | RRIRRRPPRLPRPRPRPTCEPRP | 0.295
30 | RRIRIRPPRLPRPRPRPALGPRP | 0.0956
31 | RRIRSRPPRLPRPRPRPDWGPRP | -0.128
32 | RRIRSRPPRLPRPRPRPGALPRP | 0.324
33 | RRIRDRPPRLPRPRPRPSAHPRP | 0.127
34 | RRIRFRPPRLPRPRPRPIKSPRP | -0.271
35 | RRIRLRPPRLPRPRPRPPFPPRP | 0.455
36 | RRIRKRPPRLPRPRPRPQIAPRP | -0.11
37 | RRIRSRPPRLPRPRPRPPSAPRP | 0.646
38 | RRIRQRPPRLPRPRPRPLPYPRP | -0.202
39 | RRIRVRPPRLPRPRPRPICIPRP | -0.449
40 | RRIRERPPRLPRPRPRPPGVPRP | 0.232
41 | RRIRDRPPRLPRPRPRPRFHPRP | -0.239
42 | RRIRIRPPRLPRPRPRPSCKPRP | -0.122
43 | RRIRIRPPRLPRPRPRPWSGPRP | -0.139
44 | RRIRCRPPRLPRPRPRPHETPRP | -0.035
45 | RRIRDRPPRLPRPRPRPCSVPRP | -0.0368
46 | RRIRNRPPRLPRPRPRPLLGPRP | 0.232
47 | RRIRPRPPRLPRPRPRPFCIPRP | -0.463
48 | RRIRCRPPRLPRPRPRPFNWPRP | -0.648
49 | RRIRPRPPRLPRPRPRPSIDPRP | -0.598
50 | RRIRARPPRLPRPRPRPNTGPRP | -0.0394

Row | Sequence | shrunken log2 fold change
51 | RRIRRRPPRLPRPRPRPKFQPRP | -0.00642
52 | RRIRYRPPRLPRPRPRPDRSPRP | 0.00326
53 | RRIRHRPPRLPRPRPRPACVPRP | 0.0678
54 | RRIRLRPPRLPRPRPRPALWPRP | 0.754
55 | RRIRIRPPRLPRPRPRPYHFPRP | -0.248
56 | RRIRNRPPRLPRPRPRPKMTPRP | -0.149
57 | RRIRWRPPRLPRPRPRPGDKPRP | -0.00136
58 | RRIRKRPPRLPRPRPRPSQFPRP | 0.164
59 | RRIRVRPPRLPRPRPRPHCNPRP | -0.408
60 | RRIRERPPRLPRPRPRPMGCPRP | 0.111
61 | RRIRFRPPRLPRPRPRPLAVPRP | 0.249
62 | RRIRYRPPRLPRPRPRPYYYPRP | -0.476
63 | RRIRQRPPRLPRPRPRPVQFPRP | -0.0919
64 | RRIRIRPPRLPRPRPRPIENPRP | -0.223
65 | RRIRIRPPRLPRPRPRPPIDPRP | -0.724
66 | RRIRGRPPRLPRPRPRPWLFPRP | 0.458
67 | RRIRRRPPRLPRPRPRPYYPPRP | -0.468
68 | RRIRARPPRLPRPRPRPTMQPRP | 0.418
69 | RRIRTRPPRLPRPRPRPCMIPRP | -0.546
70 | RRIRNRPPRLPRPRPRPNIKPRP | -0.641
71 | RRIRQRPPRLPRPRPRPHCFPRP | -0.111
72 | RRIRRRPPRLPRPRPRPNECPRP | 0.0616
73 | RRIRVRPPRLPRPRPRPHESPRP | 0.22
74 | RRIRTRPPRLPRPRPRPERLPRP | -0.0511
75 | RRIRERPPRLPRPRPRPHPIPRP | -0.0808

Row | Sequence | shrunken log2 fold change
76 | RRIRMRPPRLPRPRPRPGSTPRP | 0.292
77 | RRIRNRPPRLPRPRPRPIFAPRP | 0.111
78 | RRIRGRPPRLPRPRPRPYLEPRP | 0.296
79 | RRIRVRPPRLPRPRPRPELRPRP | 0.123
80 | RRIRVRPPRLPRPRPRPKNWPRP | 0.185
81 | RRIRIRPPRLPRPRPRPIPHPRP | -0.297
82 | RRIRDRPPRLPRPRPRPVTIPRP | -0.0184
83 | RRIRCRPPRLPRPRPRPTKYPRP | -0.192
84 | RRIRPRPPRLPRPRPRPWAIPRP | -0.0391
85 | RRIRARPPRLPRPRPRPPYCPRP | 0.276
86 | RRIRERPPRLPRPRPRPCFDPRP | -0.144
87 | RRIRQRPPRLPRPRPRPRQCPRP | 0.152
88 | RRIRCRPPRLPRPRPRPKMTPRP | 0.0216
89 | RRIRVRPPRLPRPRPRPPWMPRP | -0.0435
90 | RRIRTRPPRLPRPRPRPDQWPRP | -0.00805
91 | RRIRIRPPRLPRPRPRPRVYPRP | 0.00283
92 | RRIRQRPPRLPRPRPRPCPIPRP | 0.0347
93 | RRIRLRPPRLPRPRPRPARWPRP | 0.284
94 | RRIRTRPPRLPRPRPRPTVQPRP | 0.0928
95 | RRIRARPPRLPRPRPRPTDRPRP | 0.0653
96 | RRIRIRPPRLPRPRPRPYHEPRP | -0.216
97 | RRIRWRPPRLPRPRPRPHYTPRP | -0.638
98 | RRIRGRPPRLPRPRPRPPDLPRP | 0.791
99 | RRIRLRPPRLPRPRPRPSTFPRP | -0.33
100 | RRIRYRPPRLPRPRPRPAKLPRP | -0.194

Row | Sequence | shrunken log2 fold change
101 | RRIRRRPPRLPRPRPRPKSWPRP | 0.249
102 | RRIRIRPPRLPRPRPRPYDIPRP | -0.0903
103 | RRIRMRPPRLPRPRPRPCGDPRP | 0.34
104 | RRIRGRPPRLPRPRPRPPVGPRP | 0.579
105 | RRIRSRPPRLPRPRPRPNCIPRP | -0.416
106 | RRIRRRPPRLPRPRPRPARLPRP | 0.269
107 | RRIRDRPPRLPRPRPRPLPQPRP | 0.282
108 | RRIRCRPPRLPRPRPRPESYPRP | -0.336
109 | RRIRHRPPRLPRPRPRPTCGPRP | 0.0685
110 | RRIRARPPRLPRPRPRPMMRPRP | 1.22
111 | RRIRWRPPRLPRPRPRPTTTPRP | 0.567
112 | RRIRPRPPRLPRPRPRPIFVPRP | -0.197
113 | RRIRHRPPRLPRPRPRPRNFPRP | 0.134
114 | RRIRFRPPRLPRPRPRPKAQPRP | -0.0881
115 | RRIRVRPPRLPRPRPRPNIGPRP | -0.0964
116 | RRIRARPPRLPRPRPRPSLMPRP | 0.0307
117 | RRIRVRPPRLPRPRPRPPAHPRP | 0.231
118 | RRIRWRPPRLPRPRPRPLTRPRP | 2.04
119 | RRIRLRPPRLPRPRPRPLYKPRP | -0.328
120 | RRIRLRPPRLPRPRPRPRIHPRP | -0.081
121 | RRIRTRPPRLPRPRPRPFWTPRP | -0.258
122 | RRIRFRPPRLPRPRPRPPHFPRP | 0.341
123 | RRIRNRPPRLPRPRPRPFMLPRP | -1.17
124 | RRIRYRPPRLPRPRPRPEGGPRP | 0.0214
125 | RRIRYRPPRLPRPRPRPAVIPRP | -0.0517

Row | Sequence | shrunken log2 fold change
126 | RRIRIRPPRLPRPRPRPYNPPRP | -0.276
127 | RRIRRRPPRLPRPRPRPMHWPRP | 0.148
128 | RRIRARPPRLPRPRPRPDLTPRP | 0.198
129 | RRIRTRPPRLPRPRPRPEEDPRP | -0.00174
130 | RRIRKRPPRLPRPRPRPDELPRP | 2.45
131 | RRIRQRPPRLPRPRPRPEIYPRP | -0.145
132 | RRIRIRPPRLPRPRPRPKHFPRP | -0.292
133 | RRIRTRPPRLPRPRPRPDVVPRP | -0.106
134 | RRIRVRPPRLPRPRPRPKKYPRP | -0.411
135 | RRIRIRPPRLPRPRPRPRLGPRP | 0.0473
136 | RRIRHRPPRLPRPRPRPWKVPRP | -0.0338
137 | RRIRWRPPRLPRPRPRPRSRPRP | 0.385
138 | RRIRLRPPRLPRPRPRPPFTPRP | 0.11
139 | RRIRSRPPRLPRPRPRPCPHPRP | -0.283
140 | RRIRTRPPRLPRPRPRPEHSPRP | -0.237
141 | RRIRARPPRLPRPRPRPISDPRP | 0.266
142 | RRIRWRPPRLPRPRPRPEFGPRP | 0.393
143 | RRIRWRPPRLPRPRPRPSYCPRP | 0.366
144 | RRIRGRPPRLPRPRPRPSSTPRP | 0.446
145 | RRIRLRPPRLPRPRPRPLTHPRP | -0.0644
146 | RRIRHRPPRLPRPRPRPAKCPRP | -0.0799
147 | RRIRYRPPRLPRPRPRPSSAPRP | -0.197
148 | RRIRTRPPRLPRPRPRPKICPRP | -0.292
149 | RRIRLRPPRLPRPRPRPQFHPRP | -0.414
150 | RRIRLRPPRLPRPRPRPVDMPRP | -0.375
